Columns and labels:
[1] = biological target: T1, Neurotensin receptor NTS1 (HT29 cells/membranes) (human, UniProt P30989); test: competition, HT29 cells
[2] = biological target: T1, Neurotensin receptor NTS1 (HT29 …); test: competition, HT29 membranes

T1 sequence (P30989 whole entry): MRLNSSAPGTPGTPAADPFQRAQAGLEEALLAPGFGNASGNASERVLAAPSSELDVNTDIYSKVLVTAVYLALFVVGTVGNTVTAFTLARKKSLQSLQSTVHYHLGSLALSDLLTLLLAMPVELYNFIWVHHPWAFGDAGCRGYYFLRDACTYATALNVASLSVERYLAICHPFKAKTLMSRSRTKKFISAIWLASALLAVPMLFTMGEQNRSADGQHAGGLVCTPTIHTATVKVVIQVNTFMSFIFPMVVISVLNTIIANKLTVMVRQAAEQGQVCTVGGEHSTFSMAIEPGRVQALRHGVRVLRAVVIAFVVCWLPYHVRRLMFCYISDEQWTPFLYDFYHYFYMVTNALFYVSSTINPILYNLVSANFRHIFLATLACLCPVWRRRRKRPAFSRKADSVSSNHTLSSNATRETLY

| Binder | IC50 [1] [nM] | Ki [2] [nM] |
| --- | --- | --- |
| KPRRPYIL (NT(6-13) analogue, N-methylated Pro7-Arg8 bond, Tle12) [NT-20.3] | 2.2 | 0.16 |
| KPRRPYIL (not fully specified; N-methylated Pro7-Arg8 bond, Tle12; DOTA(Ga) at Lys6) [DOTA(Ga)-NT-20.3] | 13.9 | – |

More lines, in order of falling IC50 [1], values ahead:

| IC50 [1] [nM] | Ki [2] [nM] | Binder |
| --- | --- | --- |
| 15.9 | 2.24 | KPRRPYIL (not fully specified; N-methylated Pro7-Arg8 bond, Tle12; DTPA(In) at Lys6) [DTPA(In)-NT-20.3] |
| 14.9 | – | KPRRPYIL (not fully specified; N-methylated Pro7-Arg8 bond, Tle12; DOTA(In) at Lys6) [DOTA(In)-NT-20.3] |
| 7 | – | KPRRPYIL (not fully specified; N-methylated Pro7-Arg8 bond, Tle12; DOTA(Y) at Lys6) [DOTA(Y)-NT-20.3] |

From patent US20120207676 (published 2012)
